PMC7005732

Key:
[1] = biological target: Human non-translating 80S ribosome, puromycin-treated, purified from HeLa cells (human (endogenous in HeLa)) (UniProt P62750); experiment: cryo-EM structure; in vivo pulled-out Ebp1-ribosome complex (dataset 1; merged with dataset 2 for the final map): 100 nM 80S ribosomes purified from HeLa cells without addition of recombinant Ebp1; occupancy estimated from computational particle sorting
[2] = biological target: Human non-translating 80S ribosome, puromycin-treated, purified from HeLa cells (human (endogenous in HeLa)) (UniProt P62750); experiment: cryo-EM structure; in vitro reconstituted complex (dataset 2; merged with dataset 1 for the final map): 100 nM purified HeLa 80S ribosomes with an eightfold excess of recombinant Ebp1, SEC buffer (20 mM HEPES KOH pH 7.5, 5 mM Mg(OAc)2, 175 mM KOAc, 1 mM TCEP); occupancy estimated from computational particle sorting

Substance | fraction of ribosomes decorated with Ebp1 [1] [%] | fraction of ribosomes decorated with Ebp1 [2] [%]
Endogenous Ebp1 on 80S ribosomes purified from HeLa cells (from UniProt Q9UQ80 1-394) (natural protein) | 25 | –
ErbB3 receptor-binding protein (Ebp1), full-length, p48 isoform, recombinant (from UniProt Q9UQ80 1-394) (natural protein) | – | 75
